The source of these data is PMC7398163.

This test addresses FLAG-YAP tagged with a nuclear exclusion sequence (NES) (human) (UniProt P46937). In words: co-IP.

The substance “IQGAP1 (from UniProt Q9JKF1 1-1657) (natural protein)” returned a fold association relative to WT YAP of 2 fold.
